Assay results as given in FireProtDB.
“And” between values parts separate entries of the source, which are not always exact repeats. Equal values may be shown once.

B1: Thioredoxin, P80579 (parent)
chain: ATMTLTDANFQQAIQGDKPVLVDFWAAWCGPCRMMAPVLEEFAEAHADKVTVAKLNVDENPETTSQFGIMSIPTLILFKGGRPVKQLIGYQPKEQLEAQLADVLQ
B2: Guanyl-specific ribonuclease T1, P00651 (parent)
chain: MMYSKLLTLTTLLLPTALALPSLVERACDYTCGSNCYSSSDVSTAQAAGYQLHEDGETVGSNSYPHKYNNYEGFDFSVSSPYYEWPILSSGDVYSGGSPGADRVVFNENNQLAGVITHTGASGNNFVECT
B3: T-cell surface antigen CD2, P08921 (parent)
chain: MRCKFLGSFFLLFSLSSKGADCRDSGTVWGALGHGINLNIPNFQMTDDIDEVRWERGSTLVAEFKRKMKPFLKSGAFEILANGDLKIKNLTRDDSGTYNVTVYSTNGTRILNKALDLRILEMVSKPMIYWECSNATLTCEVLEGTDVELKLYQGKEHLRSLRQKTMSYQWTNLRAPFKCKAVNRVSQESEMEVVNCPEKGLPLYLIVGVSAGGLLLVFFGALFIFCICKRKKRNRRRKGEELEIKASRMSTVERGPKPHSTQASAPASQNPVASQAPPPPGHHLQTPGHRPLPPSHRNREHQPKKRPPPSGTQVHQQKGPPLPRPRVQPKPPCGSGDVSLPPPN
B4: Triosephosphate isomerase, P00942 (parent)
chain: MARTFFVGGNFKLNGSKQSIKEIVERLNTASIPENVEVVICPPATYLDYSVSLVKKPQVTVGAQNAYLKASGAFTGENSVDQIKDVGAKWVILGHSERRSYFHEDDKFIADKTKFALGQGVGVILCIGETLEEKKAGKTLDVVERQLNAVLEEVKDWTNVVVAYEPVWAIGTGLAATPEDAQDIHASIRKFLASKLGDKAASELRILYGGSANGSNAVTFKDKADVDGFLVGGASLKPEFVDIINSRN
B5: Elongation factor Ts, P43895 (parent)
chain: MSQMELIKKLREATGAGMMDVKRALEDAGWDEEKAVQLLRERGAMKAAKKADREAREGIIGHYIHHNQRVGVLVELNCETDFVARNELFQNLAKDLAMHIAMMNPRYVSAEEIPAEELEKERQIYIQAALNEGKPQQIAEKIAEGRLKKYLEEVVLLEQPFVKDDKVKVKELIQQAIAKIGENIVVRRFCRFELGA
B6: Ribonuclease, P00648 (parent)
chain: MMKMEGIALKKRLSWISVCLLVLVSAAGMLFSTAAKTETSSHKAHTEAQVINTFDGVADYLQTYHKLPDNYITKSEAQALGWVASKGNLADVAPGKSIGGDIFSNREGKLPGKSGRTWREADINYTSGFRNSDRILYSSDWLIYKTTDHYQTFTKIR

Variants of: B1
Conditions: Alicyclobacillus acidocaldarius subsp. acidocaldarius; pH 7; GdHCl; CD; Sodium phosphate 10 mM; reversible: yes; structure 1QUW; whole UniProt chain shown

Row | Variant | denaturant midpoint (higher = more stable) [M]
1 | K18G R82E | 2.4
2 | D102X | 2

Same assay, conditions: Alicyclobacillus acidocaldarius subsp. acidocaldarius; pH 7; Thermal; CD; Sodium phosphate 10 mM; reversible: yes; structure 1QUW; whole UniProt chain shown

Row | Variant | Tm
3 | K18G R82E | 73.1 °C
4 | K18G | 78.1 °C and 78.8 °C

Same assay, conditions: Alicyclobacillus acidocaldarius subsp. acidocaldarius; pH 7; Urea; CD; Sodium phosphate 10 mM; reversible: yes; structure 1QUW; whole UniProt chain shown

Row | Variant | denaturant midpoint (higher = more stable) [M]
5 | K18G R82E | 4.6
6 | K18G | 5.2
7 | D102X | 4

Variants of: B2
Conditions: Aspergillus oryzae (strain ATCC 42149 / RIB 40); pH 7; 48.6 °C; Thermal; Fluorescence; MOPS 30 mM; structure 1RN1; whole UniProt chain shown

Row | Variant | ddG of mutation (higher = less stable) [kcal/mol]
8 | Q51K E84A | -0.06
9 | E84A | 0.78
10 | Q51K | -0.93

Same assay, conditions: Aspergillus oryzae (strain ATCC 42149 / RIB 40); pH 7; Thermal; Fluorescence; MOPS 30 mM; structure 1RN1; whole UniProt chain shown

Row | Variant | Tm [°C] | change of melting temperature, mutant - wild type (higher = more stable) [°C] | unfolding enthalpy (van 't Hoff) [kcal/mol]
11 | Q51K E84A | 48.8 | -0.5 | 93
12 | Q51K | 51.7 | 3.4 | 107

Same assay, conditions: Aspergillus oryzae (strain ATCC 42149 / RIB 40); pH 7.4; 25 °C; Urea; Fluorescence; Sodium acetate 50 mM; reversible: yes; structure 1RN1; whole UniProt chain shown

Row | Variant | denaturant m value [kcal/mol/M] | denaturant midpoint (higher = more stable) [M] | unfolding free energy [kcal/mol]
13 | A47G G49A | 1.37 | 4.7 | 6
14 | A47G | 1.3 | 5.5 | 7.1

Same assay, conditions: Aspergillus oryzae (strain ATCC 42149 / RIB 40); pH 5; 10 °C; GdnHCl; CD; Na acetate 0.1 M; structure 1RN1; whole UniProt chain shown

Row | Variant | denaturant m value [kcal/mol/M] | unfolding free energy [kcal/mol]
15 | S80G P81N | 2.8 | 11.2

Same assay, conditions: Aspergillus oryzae (strain ATCC 42149 / RIB 40); pH 8; 15 °C; Urea; Absorbance; Tris-HCl 0.1 M; NaCl 2.8 M; structure 1RN1; whole UniProt chain shown

Row | Variant | unfolding free energy [kcal/mol]
16 | S80G P81N | 5.98

Same assay, conditions: Aspergillus oryzae (strain ATCC 42149 / RIB 40); pH 8; 15 °C; Urea; CD; Tris-HCl 0.1 M; NaCl 2.5 M; structure 1RN1; whole UniProt chain shown

Row | Variant | unfolding free energy [kcal/mol]
17 | S80G P81N | 2.44

Same assay, conditions: Aspergillus oryzae (strain ATCC 42149 / RIB 40); pH 7; 25 °C; Thermal; CD; MOPS 30 mM; structure 1RN1; whole UniProt chain shown

Row | Variant | ddG of mutation (higher = less stable) [kcal/mol]
18 | D75H | -1.1

Same assay, conditions: Aspergillus oryzae (strain ATCC 42149 / RIB 40); pH 7; 25 °C; Urea; Fluorescence; MOPS 30 mM; structure 1RN1; whole UniProt chain shown

Row | Variant | ddG of mutation (higher = less stable) [kcal/mol] | denaturant m value [kcal/mol/M] | denaturant midpoint (higher = more stable) [M] | unfolding free energy [kcal/mol]
19 | E84A | 0.9 | 1.2 | 3.92 | 4.72
20 | Q51K | -0.77 | 1.21 | 5.3 | 6.39

Same assay, conditions: Aspergillus oryzae (strain ATCC 42149 / RIB 40); pH 7; Thermal; Absorbance; Sodium cacodylate 10 mM; reversible: yes; structure 1RN1; whole UniProt chain shown

Row | Variant | Tm [°C] | change of melting temperature, mutant - wild type (higher = more stable) [°C]
21 | Y71W | 56 | -1.6
22 | W85Y | 53.4 | -4.2
23 | Y71W W85Y | 53.1 | -4.5

Same assay, conditions: Aspergillus oryzae (strain ATCC 42149 / RIB 40); pH 7; Thermal; Absorbance; Sodium cacodylate-D2O 100 mM; reversible: yes; structure 1RN1; whole UniProt chain shown

Row | Variant | Tm [°C] | change of melting temperature, mutant - wild type (higher = more stable) [°C]
24 | W85Y | 65 | 20

Variants of: B3
Conditions: Rattus norvegicus; pH 5; 25 °C; Urea; Fluorescence; Sodium acetate 50 mM; reversible: yes; structure 1HNG; whole UniProt chain shown

Row | Variant | ddG of mutation (higher = less stable) [kcal/mol]
25 | Y98F | -1.49

Variants of: B4
Conditions: Saccharomyces cerevisiae (strain ATCC 204508 / S288c); pH 7.4; Thermal; CD; Tris 50 mM; reversible: No; structure 1YPI; whole UniProt chain shown

Row | Variant | change of melting temperature, mutant - wild type (higher = more stable) [°C]
26 | C126S | -11.2
27 | C126A | -11.2

Same assay, conditions: Saccharomyces cerevisiae (strain ATCC 204508 / S288c); pH 8.5; Thermal; CD; Tris 50 mM; reversible: No; structure 1YPI; whole UniProt chain shown

Row | Variant | change of melting temperature, mutant - wild type (higher = more stable) [°C]
28 | C126S | -13

Variants of: B5
Conditions: Thermus thermophilus (strain ATCC 27634 / DSM 579 / HB8); pH 7; Thermal; CD; Phosphate 10 mM; reversible: No; structure 1TFE; whole UniProt chain shown

Row | Variant | Tm [°C] | change of melting temperature, mutant - wild type (higher = more stable) [°C]
29 | C190A | 105 | -10

Variants of: B6
Conditions: Bacillus amyloliquefaciens; pH 6.3; 25 °C; Urea; Fluorescence; MES 50 mM; reversible: yes; structure 1BNI; whole UniProt chain shown

Row | Variant | ddG of mutation (higher = less stable) [kcal/mol]
30 | Y125F | 1.5
31 | I135A | 4.46
32 | T53A | 2.23
33 | I143V | 0.98
34 | I143A | 3.52
35 | L61A | 4.8

Same assay, conditions: Bacillus amyloliquefaciens; pH 6.3; 25 °C; Urea; Fluorescence; MES 1 M; structure 1BNI; whole UniProt chain shown

Row | Variant | ddG of mutation (higher = less stable) [kcal/mol] | unfolding free energy [kcal/mol]
36 | A79G | 0.91 | 7.99
37 | K74A | -0.53 | 9.43

Same assay, conditions: Bacillus amyloliquefaciens; pH 6.3; 25 °C; Thermal; Fluorescence; MES 50 mM; structure 1BNI; whole UniProt chain shown

Row | Variant | ddG of mutation (higher = less stable) [kcal/mol] | unfolding free energy [kcal/mol]
38 | D101A | 3.3 | 6.9
39 | D101N | 2.6 | 7.6

Same assay, conditions: Bacillus amyloliquefaciens; pH 6.3; 25 °C; Urea; Fluorescence; MES 1.00 M; NaCl 613 mM; reversible: yes; structure 1BNI; whole UniProt chain shown

Row | Variant | ddG of mutation (higher = less stable) [kcal/mol]
40 | Y60A Y64A | 4.64
41 | Y64A | 2.26

Same assay, conditions: Bacillus amyloliquefaciens; pH 6.3; 25 °C; Urea; Fluorescence; MES 19.3 mM; reversible: yes; structure 1BNI; whole UniProt chain shown

Row | Variant | ddG of mutation (higher = less stable) [kcal/mol] | denaturant midpoint (higher = more stable) [M] | unfolding free energy [kcal/mol]
42 | I143A | 4 | 2.24 | 6.5
